Experimental data from PMC314469, “Protein Interaction Networks by Proteome Peptide Scanning” (PLoS Biology, 2004).

T1: amphyphisin SH3 (AMPH_HUMAN), P49418
T1 chain: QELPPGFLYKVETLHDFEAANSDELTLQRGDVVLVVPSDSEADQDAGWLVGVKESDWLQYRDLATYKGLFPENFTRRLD


Experiments:
[1] = target: T1, amphyphisin SH3 (AMPH_HUMAN), P49418; test: SPOT array
[2] = target: endophilin SH3 (SH3G2_HUMAN), Q99962; test: SPOT array

normalised SPOT signal, Boehringer light units (BLU); mean over the file's lines of this peptide [1]	normalised SPOT signal, Boehringer light units (BLU); mean over the file's lines of this peptide [2]	Binder
883	961	VRYPISRPRRRSSP [P10915 314-327]
216	4660	VPQKPERPPLPPEP [Q9H7F7 96-110]
42.4	101	SLGLPSRPPSQLSG [Q8TBS2 64-78]
14700	11800	VPPPPARPPPRSAR [Q8WY41 65-79]
5100	5710	VPPRPPRPPETART [P52849 69-83]
37	43.1	VRSRFKRPKPNLAR [Q9HCY0 1434-1447]
6960	2400	SLLRPWRPLRARGS [Q9NV38 6-19]
966	13000	VRPPPARPPSGPGL [BAC04982 161-175]
2830	455	VRLPFHRPPRAGAW [Q9UKN7 887-900]
2630	13800	VPQKPERPPLPPKP [Q96C88 96-110]
41.5	43.6	VPPGLRRPGPGTLY [P56945 374-387]
15.5	539	VRLLIRRPESFGPA [Q92736 2321-2334]
109	84.7	VQSIINRPRKSPLP [O75970 1239-1252]
33.9	41	VQPQLRRPFELLIA [Q96QT6 202-215]
21500	24800	VPSLPIRPSRAPSR [O43426 1061-1074]
25.8	19.5	VPRDLRRPASLIGQ [O60503 967-980]
25000	14400	VRRIPTRPPRAPRL [Q9NWD7 62-76]
